In patent publication US11732048B2, “Anti-axl antagonistic antibodies” (BERGEN TEKNOLOGIOVERFØRING AS, priority 2016, dated 2023):
“Also recorded” adds a separate entry of the source.

Tests used:
[1] = molecular target: T1, mouse Axl (rmAxl-Fc chimera; Mm-Axl-Fc) (Mus musculus, UniProt Q00993); test: Biacore binding analysis on immobilised mouse Axl
T1 construct: The soluble recombinant antigens corresponding to human Axl (rhAxl-Fc chimera; R&D Systems, Cat. no; 154-AL), mouse Axl (rmAxl-Fc chimera; Fc; purchased R&D Systems 854-AX
T1 sequence (Q00993 19-445 limits assumed, change not shown): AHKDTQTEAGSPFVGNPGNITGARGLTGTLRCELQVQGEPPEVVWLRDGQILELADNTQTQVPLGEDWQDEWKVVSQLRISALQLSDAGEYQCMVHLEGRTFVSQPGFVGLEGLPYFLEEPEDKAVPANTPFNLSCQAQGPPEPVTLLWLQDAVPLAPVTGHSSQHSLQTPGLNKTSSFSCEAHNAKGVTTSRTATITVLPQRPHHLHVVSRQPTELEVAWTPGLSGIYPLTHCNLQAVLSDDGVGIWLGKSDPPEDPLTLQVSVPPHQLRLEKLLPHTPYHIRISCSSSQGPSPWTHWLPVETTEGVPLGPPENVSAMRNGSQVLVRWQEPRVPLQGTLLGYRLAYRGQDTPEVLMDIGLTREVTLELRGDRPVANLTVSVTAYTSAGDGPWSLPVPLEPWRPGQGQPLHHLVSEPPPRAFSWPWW
Experimental: (§1) The binding experiments were performed using Biacore 3000 instrument (GE Healthcare) at 25° C. The soluble recombinant antigens corresponding to human Axl (rhAxl-Fc chimera; R&D Systems, Cat. no. 154-AL), mouse Axl (rmAxl-Fc chimera; R&D Systems, R&D Systems; Cat. no. 854-AX) and human Tyro3 (rhTyro3/Dtk-Fc chimera; R&D Systems, Cat. no. 859-DK) were immobilized on the surface of CM5 sensor chip using amine coupling at the surface density of 1,308.0, 2,115.9 and 1,429.0 RU, respectively. The Biacore runs were performed in an automatic mode using Binding analysis wizard.
(§2) The sample containing MAb 10G5 or recombinant mouse (rm) Axl-ligand Gas6 (R&D Systems, Cat. no. 986-GS/CF) at concentration 10 μg/mL in HBS-EP buffer (GE Healthcare) was injected over the surfaces with immobilized antigens at flow rate of 30 μL/min for 3 min (association) followed by 5 min dissociation.
Sensor chip with immobilised Axl: Hs-Axl-Fc (638.2 RU), Mm-Axl-Fc (334.5 RU), Rhe-Axl-Fc (350.2 RU)
All tests were performed in parallel on Hs-Axl-Fc, Mm-Axl-Fc and Rhe-Axl-Fc surfaces.

[2] = molecular target: T2, Tyro3 (rhTyro3/Dtk-Fc chimera) (Homo sapiens, UniProt Q06418); test: Biacore binding analysis on immobilised human Tyro3; details: 10 μg/mL in HBS-EP, 25° C.
T2 construct: Soluble recombinant antigens corresponding to the extracellular domains of members of the human TAM receptor family; Fc; purchased R&D Systems 859-DK
T2 sequence (Q06418 41-429 limits assumed): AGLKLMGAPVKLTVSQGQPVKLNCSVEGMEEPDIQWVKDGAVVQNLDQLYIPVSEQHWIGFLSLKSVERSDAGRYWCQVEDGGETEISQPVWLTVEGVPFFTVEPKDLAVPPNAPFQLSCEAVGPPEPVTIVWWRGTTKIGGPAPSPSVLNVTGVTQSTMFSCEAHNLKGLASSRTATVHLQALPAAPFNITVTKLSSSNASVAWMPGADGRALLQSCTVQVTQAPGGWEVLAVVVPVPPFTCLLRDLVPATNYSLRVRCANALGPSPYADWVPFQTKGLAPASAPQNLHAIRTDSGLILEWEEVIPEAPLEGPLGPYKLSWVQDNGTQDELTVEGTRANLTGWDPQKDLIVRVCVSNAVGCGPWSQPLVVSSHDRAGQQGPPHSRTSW
Experimental: All binding experiments were performed using Biacore 3000 instrument (GE Healthcare) at 25° C. Soluble recombinant antigens corresponding to the extracellular domains of members of the human TAM receptor family, Axl (rhAxl-Fc chimera; R&D Systems, Cat. no. 154-AL), Mer (rhMer-Fc chimera; R&D Systems, Cat. no. 891-MR) and Tyro3 (rhTyro3/Dtk-Fc chimera; R&D Systems, Cat. no. 859-DK) were immobilized on the surface of CM5 sensor chip using amine coupling at the surface density of 393.0, 303.6 and 364.0 resonance units (RU), respectively. The Biacore run was performed in an automatic mode using Binding analysis wizard. Samples containing MAb 10G5 at concentration 10 μg/mL in HBS-EP buffer (GE Healthcare) were injected over the surfaces with immobilized antigens at flow rate of 30 μL/min for 3 min (association) followed by 5 min dissociation.
as §1, §2

cyno-Axl (cyno-Axl-Fc) = test: Biacore binding analysis on immobilised cynomolgus Axl; set-up: species or system cynomolgus monkey (Macaca fascicularis); details: 10 μg/mL in HBS-EP, 25° C.
Sequence of cyno-Axl (cyno-Axl-Fc) (as listed by the source): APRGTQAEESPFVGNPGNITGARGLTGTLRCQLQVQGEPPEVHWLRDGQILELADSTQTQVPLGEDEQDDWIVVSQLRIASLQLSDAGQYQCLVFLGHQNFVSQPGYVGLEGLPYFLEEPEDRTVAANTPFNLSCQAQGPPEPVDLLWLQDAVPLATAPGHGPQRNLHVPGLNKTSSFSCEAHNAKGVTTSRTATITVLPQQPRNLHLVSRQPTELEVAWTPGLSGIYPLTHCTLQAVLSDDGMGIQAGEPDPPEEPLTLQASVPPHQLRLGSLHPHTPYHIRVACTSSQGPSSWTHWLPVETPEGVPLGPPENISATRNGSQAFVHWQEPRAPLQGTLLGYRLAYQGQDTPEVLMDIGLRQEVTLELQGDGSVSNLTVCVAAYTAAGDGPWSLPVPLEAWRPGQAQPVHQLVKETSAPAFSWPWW
Experimental: The sequence of Axl receptor from cynomolgus monkey (Macaca fascicularis; SEQ ID NO: 27) was retrieved from WO2009062690A1. Based on the sequence, recombinant extracellular domain of cyno-Axl was generated by transient expression in CHO cells as a fusion protein with human Fc. The recombinant cyno-Axl-Fc was purified to homogeneity using Protein A-Sepharose (GE Healthcare). The binding experiments were performed using Biacore 3000 instrument (GE Healthcare) at 25° C. The soluble recombinant antigens corresponding to human Axl (rhAxl-Fc chimera; R&D Systems, Cat. no. 154-AL) and cyno-Axl were immobilized on the surface of CM5 sensor chip using amine coupling at the surface density of 775 and 880 RU, respectively. The Biacore runs were performed in an automatic mode using Binding analysis wizard.
The sample containing MAb 10G5 or human Axl-specific MAb 5F11 (control) at concentration 10 μg/mL in HBS-EP buffer (GE Healthcare) was injected over the surfaces with immobilized antigens at flow rate of 30 μL/min for 3 min (association) followed by 5 min dissociation.

[3] = test system: Axl signalling (phosphorylation of Akt on Ser473) in HeLa cells; test: Gas6-induced Axl downstream signalling, phospho-Akt (Ser473) Western blot; type: cell-based, human; details: pre-incubation 1 μg/mL 1 hr, then mouse Gas6 10 μg/mL 20 min
Experimental: The experiments were performed using human cervical cancer derived cell line HeLa (ATCC® CCL-2™). The cells were grown in T175 flasks to 80% confluency in MEM culture medium (Sigma) supplemented with 10% FBS, penicillin-streptomycin and L-glutamine. The cells were washed with PBS and detached by treatment with 0.25% Trypsin/EDTA (Sigma) followed by centrifugation and resuspension in fresh medium (MEM/0.5% FBS). The cells were seeded in Petri dishes (3×10^6 cells per dish) in MEM medium supplemented with 10% FBS. After three hrs incubation at 37° C., the cells were washed with PBS and kept in starvation medium (MEM/0.5% FBS) overnight. The cells were pre-incubated with anti-Axl antibody 10G5 at concentration 1 μg/mL for 1 hr followed by stimulation with Axl ligand, recombinant mouse Gas6 (R&D Systems), at concentration 10 μg/mL for 20 min. […] Detection with anti-GAPDH antibody (Millipore) was used as loading control.

Binding to mouse Axl [1]: no significant binding | Binding to recombinant human Tyro3 [2]: no significant binding
B1: murine 10G5: mouse monoclonal anti-human Axl antibody from hybridoma WR-10G5-E5; VH SEQ ID NO: 28, VL SEQ ID NO: 29 (antibody, listed as Mus musculus, V domains shown)
VH: QVQLQQSGAELVRPGASVKLSCKASGYSFTDFYINWVRQRPGQGLEWIARIFPGGDNTYYNEKFKGKATLTAEESSSTAYIQLSSLTSEDSAVYFCARRGLYYAMDYWGQGISVTVSS
VL: DVLMTQTPLSLPVSLGDQASISCRSSQSLVHSNGIPYLHWYLQKPGQSPKLLIYRVSNRFSGVPDRFSGSGSGTDFTLKISRVEAEDLGVYFCSQGTHVPPTFGGGTKLEIK
modifications: (1)..(118) Mus musculus 10G5 VH domain; (1)..(112) Mus musculus 10G5 VL domain
Binding to Axl from cynomolgus monkey (cyno-Axl (cyno-Axl-Fc)): bind strongly; also recorded: strong and specific interaction | Gas6-induced phosphorylation of Akt on Ser473 [3]: significantly reduces; also recorded: significantly be reduced
